Assay results reported in patent US20190127470A1 (TRUSTEES OF DARTMOUTH COLLEGE, published 2019).

Target: T1, g2.5-11 scFv-Fc (UniProt P01857-1 1-330 = IgG part)
T1 construct: domain: heavy chain constant regions (CH1-CH3); also called g2.5-3 (identical at the amino acid level); Fg2.5-3
Test: Octet BLI, scFv-Fc loaded on anti-human CH1 tips, 0-500 nM B7H6-Ig in solution, global fit
Experimental: Anti-Human CH1 tips were activated with 0.05 mg/mL a2.5-11 scFv-Fc protein for 600 seconds to ensure saturation of tips with […]. Tips were then transferred to PBS+0.1% Tween (PBS-T)-containing wells for baseline measurements of scFv-Fc-loaded tips before transferring to antigen-containing wells ranging from 0-500 nM B7H6-Ig. Samples were double-referenced using non-activated tips and PBS-T only containing wells. The Octet Analysis software was used for global kinetic fits which determine a single KD measurement for each antigen using association and dissociation curves for all concentrations tested.

T1 sequence (P01857 other isoform, or with tags, fused parts or gaps limits assumed): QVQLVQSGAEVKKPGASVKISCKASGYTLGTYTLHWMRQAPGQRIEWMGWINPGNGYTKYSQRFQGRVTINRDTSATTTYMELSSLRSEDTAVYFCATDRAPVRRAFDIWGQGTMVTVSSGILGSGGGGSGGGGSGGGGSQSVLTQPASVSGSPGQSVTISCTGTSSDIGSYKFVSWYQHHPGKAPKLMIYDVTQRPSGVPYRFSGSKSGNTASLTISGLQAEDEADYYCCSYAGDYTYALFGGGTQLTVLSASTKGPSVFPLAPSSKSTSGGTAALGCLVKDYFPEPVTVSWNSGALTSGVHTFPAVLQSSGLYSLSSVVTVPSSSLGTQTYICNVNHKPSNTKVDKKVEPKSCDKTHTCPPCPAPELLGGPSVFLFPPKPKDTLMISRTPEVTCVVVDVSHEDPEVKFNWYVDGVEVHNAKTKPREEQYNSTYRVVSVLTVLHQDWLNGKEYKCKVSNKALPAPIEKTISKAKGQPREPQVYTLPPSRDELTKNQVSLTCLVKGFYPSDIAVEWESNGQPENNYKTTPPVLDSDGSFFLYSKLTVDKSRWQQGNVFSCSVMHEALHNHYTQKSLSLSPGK

B1: B7H6-Ig, a fusion protein containing the extracellular portion of B7H6 and the Fc portion of a Mouse IgG2a (Fc fusion, UniProt Q68D85 25-262, looked up)
chain: DLKVEMMAGGTQITPLNDNVTIFCNIFYSQPLNITSMGITWFWKSLTFDKEVKVFEFFGDHQEAFRPGAIVSPWRLKSGDASLRLPGIQLEEAGEYRCEVVVTPLKAQGTVQLEVVASPASRLLLDQVGMKENEDKYMCESSGFYPEAINITWEKQTQKFPHPIEISEDVITGPTIKNMDGTFNVTSCLKLNSSQEDPGTVYQCVVRHASLHTPLRSNFTLTAARHSLSETEKTDNFS
notes: extracellular domain; also called soluble B7H6-Ig antigen; not shown: Fc portion of a Mouse IgG2a
**Q.** What does the source list for B1?
**A.** Kd: 25.7 nM; koff: 0.00035 s⁻¹; kon: 13700 M⁻¹ s⁻¹
